The assay has as its target T1, Full-length human CTGF (human, UniProt P29279 27-349).
T1 construct: Corresponds to NCBI NP_001892.1 with the signal peptide omitted; purchased from R&D Systems; also called hCTGF full length; full length CTGF
T1 sequence: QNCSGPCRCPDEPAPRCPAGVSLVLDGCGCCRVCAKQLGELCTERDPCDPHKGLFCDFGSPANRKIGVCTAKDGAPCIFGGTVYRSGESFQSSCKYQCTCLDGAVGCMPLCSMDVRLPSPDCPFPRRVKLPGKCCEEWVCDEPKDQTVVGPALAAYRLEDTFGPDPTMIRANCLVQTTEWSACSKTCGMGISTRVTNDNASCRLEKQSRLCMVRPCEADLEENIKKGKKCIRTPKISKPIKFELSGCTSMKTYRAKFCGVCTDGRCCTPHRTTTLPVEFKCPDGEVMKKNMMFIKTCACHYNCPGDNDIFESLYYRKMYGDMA
The experiment in a line: SPR, full length CTGF. A general note: SPR reads the build-up and loss of mass on a sensor chip optically.

B1: A89 (antibody, human IgG1, kappa, L234A L235A, V domains shown)
VH: EVQLVESGGGLVQPGGSLRLSCAASGFTFSDYYMAWVRQAPGKGLEWVANINYEGSRTDLLESLKSRFTISRDNAKNSVYLQMNSLRAEDTAVYYCARDTSRGSYFDVWGAGTTVTVSS
VL: VVMTQTPLSLSVSLGDQASISCKSSQSIVHYNGNTYLEWYLQKPGQSPQLLIYKVSSRFSGVPDRFSGSGSGTDFTLKISRVEAEDLGVYYCFQGSHFPLTFGQGTKLEIKR
By Kd is commonly meant the free concentration of one partner at which half of the binding sites on the other are occupied at equilibrium, for simple one-to-one binding. Regarding B1, binding was put at a Kd of 160 pM.

B2: A95 (antibody, human IgG1, kappa, L234A L235A, V domains shown)
VH: EVQLVESGGGLVQPGGSLRLSCAASGFTFSDYYMAWVRQAPGKGLEWVANINYDGSRTDLLESLKSRFTISRDNAKNSVYLQMNSLRAEDTAVYYCARDTSRGSYFDVWGAGTTVTVSS
VL: VVMTQTPLSLSVSLGDQASISCKSSQSIVHYNGNTYLEWYLQKPGQSPQLLIYKVSSRFSGVPDRFSGSGSGTDFTLKISRVEAEDLGVYYCFQGSHFPLTFGQGTKLEIKR
B2: the Kd worked out at 190 pM.

B3: A91 (antibody, human IgG1, kappa, L234A L235A, V domains shown)
VH: EVQLVESGGGLVQPGGSLRLSCAASGFTFSDYYMAWVRQAPGKGLEWVANINYEGSRTDLLASLKSRFTISRDNAKNSVYLQMNSLRAEDTAVYYCARDTSRGSYFDVWGAGTTVTVSS
VL: VVMTQTPLSLSVSLGDQASISCKSSQSIVHYNGNTYLEWYLQKPGQSPQLLIYKVSSRFSGVPDRFSGSGSGTDFTLKISRVEAEDLGVYYCFQGSHFPLTFGQGTKLEIKR
Regarding B3, binding was put at a Kd of 130 pM.

B4: A93 (antibody, human IgG1, kappa, L234A L235A)
light: VVMTQTPLSLSVSLGDQASISCKSSQSIVHYNGNTYLEWYLQKPGQSPQLLIYKVSSRFSGVPDRFSGSGSGTDFTLKISRVEAEDLGVYYCFQGSHFPLTFGQGTKLEIKRTVAAPSVFIFPPSDEQLKSGTASVVCLLNNFYPREAKVQWKVDNALQSGNSQESVTEQDSKDSTYSLSSTLTLSKADYEKHKVYACEVTHQGLSSPVTKSFNRGEC
heavy: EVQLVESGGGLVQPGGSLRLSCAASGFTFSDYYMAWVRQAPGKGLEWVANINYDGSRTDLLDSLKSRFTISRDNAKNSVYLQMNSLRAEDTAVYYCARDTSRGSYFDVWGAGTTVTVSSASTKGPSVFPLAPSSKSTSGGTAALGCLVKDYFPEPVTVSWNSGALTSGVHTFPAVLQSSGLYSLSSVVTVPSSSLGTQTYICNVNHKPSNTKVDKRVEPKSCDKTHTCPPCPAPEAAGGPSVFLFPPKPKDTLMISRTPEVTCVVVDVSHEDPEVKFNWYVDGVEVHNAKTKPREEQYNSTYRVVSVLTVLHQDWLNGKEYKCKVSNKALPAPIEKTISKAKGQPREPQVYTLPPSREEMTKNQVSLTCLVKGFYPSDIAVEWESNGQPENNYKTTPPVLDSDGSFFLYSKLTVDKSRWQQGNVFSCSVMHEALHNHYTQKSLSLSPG
For the molecule B4, the Kd worked out at 180 pM.

B5: A92 (antibody, human IgG1, kappa, L234A L235A, V domains shown)
VH: EVQLVESGGGLVQPGGSLRLSCAASGFTFSDYYMAWVRQAPGKGLEWVANINYYGSRTDLLASLKSRFTISRDNAKNSVYLQMNSLRAEDTAVYYCARDTSRGSYFDVWGAGTTVTVSS
VL: VVMTQTPLSLSVSLGDQASISCKSSQSIVHYNGNTYLEWYLQKPGQSPQLLIYKVSSRFSGVPDRFSGSGSGTDFTLKISRVEAEDLGVYYCFQGSHFPLTFGQGTKLEIKR
Molecule B5 gave an equilibrium dissociation constant (Kd) of 160 pM.

B6: A94 (antibody, human IgG1, kappa, L234A L235A, V domains shown)
VH: EVQLVESGGGLVQPGGSLRLSCAASGFTFSDYYMAWVRQAPGKGLEWVANINYEGSRTDLLDSLKSRFTISRDNAKNSVYLQMNSLRAEDTAVYYCARDTSRGSYFDVWGAGTTVTVSS
VL: VVMTQTPLSLSVSLGDQASISCKSSQSIVHYNGNTYLEWYLQKPGQSPQLLIYKVSSRFSGVPDRFSGSGSGTDFTLKISRVEAEDLGVYYCFQGSHFPLTFGQGTKLEIKR
On to B6, for which the Kd was 190 pM.

B7: A96 (antibody, human IgG1, kappa, L234A L235A)
light: VVMTQTPLSLSVSLGDQASISCKSSQSIVHYNGNTYLEWYLQKPGQSPQLLIYKVSSRFSGVPDRFSGSGSGTDFTLKISRVEAEDLGVYYCFQGSHFPLTFGQGTKLEIKRTVAAPSVFIFPPSDEQLKSGTASVVCLLNNFYPREAKVQWKVDNALQSGNSQESVTEQDSKDSTYSLSSTLTLSKADYEKHKVYACEVTHQGLSSPVTKSFNRGEC
heavy: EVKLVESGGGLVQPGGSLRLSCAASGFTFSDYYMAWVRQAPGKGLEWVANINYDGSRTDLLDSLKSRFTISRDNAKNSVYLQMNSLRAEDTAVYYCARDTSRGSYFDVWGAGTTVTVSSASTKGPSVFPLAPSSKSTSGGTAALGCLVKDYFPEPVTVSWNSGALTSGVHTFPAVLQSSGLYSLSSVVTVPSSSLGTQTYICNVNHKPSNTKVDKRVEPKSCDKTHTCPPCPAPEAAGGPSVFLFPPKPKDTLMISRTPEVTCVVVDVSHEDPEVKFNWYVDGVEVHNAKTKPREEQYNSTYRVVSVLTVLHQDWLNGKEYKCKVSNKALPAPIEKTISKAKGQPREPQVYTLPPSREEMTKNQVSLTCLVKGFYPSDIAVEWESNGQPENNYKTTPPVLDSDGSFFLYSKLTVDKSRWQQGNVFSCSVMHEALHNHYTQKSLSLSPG
On to B7, for which the Kd was found to be 190 pM.

B8: A90 (antibody, human IgG1, kappa, L234A L235A, V domains shown)
VH: EVQLVESGGGLVQPGGSLRLSCAASGFTFSDYYMAWVRQAPGKGLEWVANINYYGSRTDLLESLKSRFTISRDNAKNSVYLQMNSLRAEDTAVYYCARDTSRGSYFDVWGAGTTVTVSS
VL: VVMTQTPLSLSVSLGDQASISCKSSQSIVHYNGNTYLEWYLQKPGQSPQLLIYKVSSRFSGVPDRFSGSGSGTDFTLKISRVEAEDLGVYYCFQGSHFPLTFGQGTKLEIKR
As to B8, the Kd turned out to be 170 pM.
